Test results published in the supplement of paper PMC10567573.

B1: TLE6 (parent)
chain: FWHDTLTEQLWRIFAGVHDEKAKP
B2: VTI1B (parent)
chain: NKLLLSIIILLELAILGGLVYYKF

Variants of: B1
Test: protein stability index of a GFP-peptide fusion (GPS, HEK-293T) (PSI 1-6); higher = more stable
Settings: c terminus: a fixed tail appended
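Also: lentivirally expressed fusions sorted by FACS into six bins by GFP to DsRed ratio, PSI derived from sequencing read proportions per bin multiplied by bin number.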

Protein stability index: each site, then its substitutions
L10: W 2.42, M 1.88, C 1.94, K 2.59
Q9: K 1.51
T5: L 1.97, F 2.25
E20: Y 2.01
H18: P 1.48, F 1.92, Y 2.35
K21: F 2.72, D 2.6
F14: M 2.19, L 1.8, A 1.65, R 2.4
V17: A 2.81, I 1.14
A15: N 1.68, R 1.94, C 2.23, L 2.41
R12: S 2.06, N 2.2, Y 1.69
A22: E 1.75, V 1.8
D19: Q 1.22, G 1.72, S 1.79, L 1.39
T7: F 2.03, R 1.89, Q 2.46
F1: A 2.28
W11: H 2.52, F 1.59, C 1.99
P24: K 1.78, D 1.65
D4: S 1.83, A 1.49, K 1.76
E8: N 1.79, V 2.95
W2: C 1.66, Y 1.85, S 1.62
L6: H 2.35
I13: D 1.78, S 1.99, T 2.44
H3: G 1.82, M 2.25, W 3.07
G16: K 2.12, F 1.72, M 2.14, D 2.06

Variants of: B2
Test: as above
Settings: c terminus: a fixed tail appended

Protein stability index of substitutions, site by site:
L13: N 2.58, T 3.42, P 3.15, G 3.93, C 1.85, R 3.24, A 2.4, S 3.71, E 2.44
V20: I 2.23, N 2.81, C 1.34, R 3.41, K 3.48, Q 3.31, F 2.98, Y 2.87, M 3.01, L 3.59
A14: E 3.15, C 2.98, M 2.43, I 1.84, N 2.81, R 3.34, H 3.82, Y 3.19
F24: A 2.47, Q 2.77, T 3.12, K 1.52, P 2.79, Y 1.63, D 3.03, V 2.5, R 3.27, L 2.53, H 2.07, G 2.52, S 2.46, C 2.01, W 1.83
G18: P 2.88, W 2.52, V 2.56, E 2.07, Q 2.61, F 1.55, A 2.61, R 2.65, D 2.01
N1: G 3.29, M 2.75, Y 2.36, A 3.04, F 2.82, D 3, P 1.77, K 1.85, W 3.84, E 4.24, I 2.97, R 2.99, V 2.54, Q 2.12, L 2.74, C 3.66
I7: A 2.32, E 1.86, L 3.54, T 3.78, R 3.87, Y 2.74, M 3.23, V 2.32, C 2.9
G17: N 2.64, Q 3.08, C 3.4, H 2.42, V 2.85, T 3.94, Y 2.5, P 2.58, W 3.38, F 3.71
L3: G 2.83, S 1.78, Y 3.55, R 3.98, K 1.85, T 2.98, M 2.52, A 2.92, W 2.79
L5: I 3.01, F 2.55, P 2.39, E 4.19, Y 3.05, Q 4.28, K 2.14, V 2.08, R 1.8
Y22: V 3.2, Q 3.06, S 1.56, T 2.95, R 2.92, A 3.55, C 2.53, K 1.71, D 2.55, I 3.12, E 1.54, G 3.7, P 3.8, H 3.4
L16: I 1.99, A 4.1, N 2.9, Q 3.17, K 3.6, V 2.62, D 2.8, C 2.13, T 2.9, R 2.77, F 2.62, P 2.27, H 4.31
L10: Y 2.8, D 2.71, C 3.11, T 1.93, F 2.6, V 3.92, Q 1.98, E 3.16, G 2.46, P 3.62, W 3.4, S 4.51, I 2.55, M 2.86, N 2.09
K23: S 2.05, N 2.72, Q 3.58, A 2.52, D 2.65, E 2.78, R 2.49, M 4.1, C 2.27, V 3.21, G 2.08, F 2.1, H 1.85
L11: R 3.68, K 2.59, M 3.36, H 4.16, V 1.49, S 3.88, P 2.43, N 3.97, F 2.39, T 2.53, D 3.12
E12: T 2.87, Y 2.01, P 2.64, W 1.82, M 2.4, A 2.13, R 2.18, I 2.73, D 2.99, K 2.66, H 2.64, F 2.17, Q 3.45, C 2.57
S6: Q 3.32, H 2.51, T 3.52, P 3.12, L 2.02, I 1.85, E 3.51, R 3.55, M 2.86, G 1.88, V 2.5, W 2.11
I8: Y 3.31, D 3.18, N 3.11, M 2.81, H 4.21, S 3.02, P 2.61, K 2.87, Q 3.49, A 3.36, R 1.95, V 2.56, W 2.33, F 2.03, T 3.41
I9: E 2.85, F 2.03, W 1.51, G 2.8, K 3.22, T 2.58, Y 2.38, S 4.04, L 2.16, M 3.54
Y21: A 1.46, L 3.39, Q 3.37, S 1.66, N 2.3, C 3.01, T 2.79, P 2.42, D 3.33, F 3.24
L4: H 3.22, Y 2.34, E 2.47, M 1.8, A 3.17, V 2.82, S 2.38, G 2.29, C 2.35, D 3.75
I15: T 2.54, F 2.06, K 3.29, C 2.38, H 2.83, S 3, G 3.52, D 3.64, N 1.43, R 2.12, P 3.21, E 2.52, W 2.18
L19: Q 3.21, E 4.42, H 1.56, Y 2.48, K 2.67, N 3.02, W 2.91, G 3.14, D 3.31, I 3.35, F 2.77, R 2.95
K2: C 2.17, S 2.46, Y 3.38, Q 4.47, T 2.66, V 3.38, M 2.6, D 2.35
